Results published in article PMC5814901.

Experiments:
[1] = target: UvrAB complex formed beforehand on DNA tightropes (Bacillus caldotenax) (UniProt P56981); assay: single-molecule fluorescence colocalisation on DNA tightropes (three colours); UvrA, UvrB and UvrC (1:1:0.5 nM) labelled with different Qdots (565, 605, 655 nm), incubated together, then added to undamaged λ-DNA tightropes; room temperature; ABC buffer (50 mM Tris-HCl pH 7.5, 50 mM KCl, 1 mM ATP, 10 mM MgCl2, 10 mM DTT)
[2] = target: UvrAB complex formed beforehand on DNA tightropes (Bacillus caldotenax) (UniProt P56981); assay: single-molecule fluorescence colocalisation on DNA tightropes (two colours); UvrAB complexes first formed on undamaged DNA tightropes with the Qdot on UvrB (unlabelled, non-biotinylated UvrA) or on UvrA; streptavidin-Qdot-labelled biotin-UvrC of another colour then added; dual-coloured complexes counted; room temperature; ABC buffer
[3] = target: UvrA (Bacillus caldotenax) (Bacillus caldotenax); assay: single-molecule fluorescence colocalisation on DNA tightropes (three colours); UvrA, UvrB and UvrC (1:1:0.5 nM) labelled with different Qdots (565, 605, 655 nm), incubated together, then added to undamaged λ-DNA tightropes; room temperature; ABC buffer (50 mM Tris-HCl pH 7.5, 50 mM KCl, 1 mM ATP, 10 mM MgCl2, 10 mM DTT)
[4] = target: UvrC (Bacillus caldotenax) (Bacillus caldotenax); assay: as above

UvrC (Bacillus caldotenax) (natural protein)
occurrence of the triple-coloured complex among DNA-bound Qdots [1]: 1.6% | occurrence of the dual-colour complex among DNA-bound Qdots [2]: 16.6%

B1: UvrB (Bacillus caldotenax) (natural protein)
chain: MVEGRFQLVAPYEPQGDQPQAIAKLVDGLRRGVKHQTLLGATGTGKTFTISNVIAQVNKPTLVIAHNKTLAGQLYSELKEFFPHNAVEYFVSYYDYYQPEAYVPQTDTYIEKDAKINDEIDKLRHSATSALFERRDVIIVASVSCIYGLGSPEEYRELVVSLRVGMEIERNALLRRLVDIQYDRNDIDFRGTFRVRGDVVEIFPASRDEHCIRVEFFGDEIERIREVDALTGKVLGEREHVAIFPASHFVTREEKMRLAIQNIEQELEERLAELRAQGKLLEAQRLEQRTRYDLEMMREMGFCSGIENYSRHLALRPPGSTPYTLLDYFPDDFLIIVDESHVTLPQLRGMYNGDRARKQVLVDHGFRLPSALDNRPLTFEEFEQKINQIIYVSATPGPYELEHSPGVVEQIIRPTGLLDPTIDVRPTKGQIDDLIGEIRERVERNERTLVTTLTKKMAEDLTDYLKEAGIKVAYLHSEIKTLERIEIIRDLRLGKYDVLVGINLLREGLDIPEVSLVAILDADKEGFLRSERSLIQTIGRAARNANGHVIMYADTITKSMEIAIQETKRRRAIQEEYNRKHGIVPRTVKKEIRDVIRATYAAEETEMYEAKPAAAMTKQEREELIRTLEAEMKEAAKALDFERAAQLRDIIFELKAEG
occurrence of the complex among DNA-bound Qdots [3]: 6.7% | occurrence of the complex among DNA-bound Qdots [4]: 1.6%
